These results are taken from article PMC8529701, “Biofoundry-assisted expression and characterization of plant proteins”.

The series has as its target T1, AtTGA2 (6xHis-HRV3C-AtTGA2-HiBiT, plasmid pEPQDKN0742) (UniProt P43273 1-330).
T1 sequence: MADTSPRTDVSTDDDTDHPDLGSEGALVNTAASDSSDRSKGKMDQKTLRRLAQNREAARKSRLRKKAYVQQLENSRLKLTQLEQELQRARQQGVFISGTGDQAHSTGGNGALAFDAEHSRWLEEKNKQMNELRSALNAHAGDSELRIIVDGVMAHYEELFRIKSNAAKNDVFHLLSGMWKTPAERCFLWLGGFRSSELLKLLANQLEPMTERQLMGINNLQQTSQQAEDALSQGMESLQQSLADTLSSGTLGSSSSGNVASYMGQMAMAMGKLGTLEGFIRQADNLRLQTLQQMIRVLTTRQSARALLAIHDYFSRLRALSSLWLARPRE
Briefly: EMSA; 500 ng poly(dI-dC); 20 mM Tris-HCl pH 8.0, 50 mM KCl, 2 mM DTT, 1 mM EDTA, 500 ng poly(dI-dC), 5% glycerol, 0.05% IGEPAL CA630, 0.1 mg/ml BSA; about 500 pmol protein, 5.5 pmol probe; room temperature 1 h; 6% TBE gel. As to conditions: protein: ivt; tags: N-terminal NET-6xHis-HRV3C (as described for plasmid); C-terminal HiBiT; label: Alexa-488 at 5' end of the complementary strand (Klenow extension of labelled primer S3); blunt. (Mobility shift assays separate free from complexed probe on a gel.)

B1: Random control probe (dsDNA)
DNA 1: GACCCCTATTGCAGCTATTTCACACATACCAACGCTTAGCGCAATGGCCATCACGCAGTA
DNA 2: TACTGCGTGATGGCCATTGCGCTAAGCGTTGGTATGTGTGAAATAGCTGCAATAGGGGTC
As to B1, the binding result is recorded as “no binding”.

B2: TGA TFBS probe (dsDNA)
DNA 1: GACCCCTATTGCAGCTATTTCACCTGACGTAAGGGATGACGCACAGGCCATCACGCAGTA
DNA 2: TACTGCGTGATGGCCTGTGCGTCATCCCTTACGTCAGGTGAAATAGCTGCAATAGGGGTC
With B2, the binding result is listed as “binds”.
